Patent US20240376185A1 (SMIVET B V, published 2024)

Experiments:
horse serum albumin = target: T1, horse serum albumin (horse, UniProt P35747 25-607); test: BLI, Octet Red96
T1 construct: mature; also called horse Alb; Equine albumin

[1] = target: T2, tetanus neurotoxin (TeNT), authentic tetanus holotoxin (Clostridium tetani, UniProt P04958 2-1315); test: GT1b-TeNT inhibition ELISA
[2] = target: T2, tetanus neurotoxin (TeNT), authentic …; test: GT1b-TeNT inhibition ELISA; remark: listed apart in the source
dog albumin (dog Alb) [3] = target: T3, dog albumin (dog Alb) (dog, UniProt P49822 25-608); test: ELISA: coated dog Alb, anti-his6 PO
T3 construct: also called Canine albumin

dog albumin (dog Alb) [4] = target: T3, dog albumin (dog Alb); test: ELISA: coated dog Alb, anti-his6 PO; remark: listed apart in the source
[5] = target: T2, tetanus neurotoxin (TeNT), authentic …; test: ELISA: directly coated TeNT, anti-his6 PO
[6] = target: T2, tetanus neurotoxin (TeNT), authentic …; test: ELISA: directly coated TeNT, anti-his6 PO; remark: listed apart in the source
[7] = target: T2, tetanus neurotoxin (TeNT), authentic …; test: ELISA: directly coated TeNT, goat anti-llama Ig PO
[8] = target: T2, tetanus neurotoxin (TeNT), authentic …; test: ELISA: directly coated TeNT, goat anti-llama Ig PO; remark: listed apart in the source
[9] = target: T2, tetanus neurotoxin (TeNT), authentic …; test: BLI (Octet Red96): biotinylated TeNT on SA sensor, SDA as analyte
[10] = target: T4, horse albumin (horse Alb) (horse, UniProt P35747 25-607); test: bridging ELISA: cAb-TT2-captured TeNT, SDA, biotinylated horse Alb, StrepPO
[11] = target: T4, horse albumin (horse Alb); test: as above; remark: listed apart in the source
[12] = target: T2, tetanus neurotoxin (TeNT), authentic …; test: bridging ELISA: coated TeNT, SDA, biotinylated TeNT, StrepPO (bivalent binding)
[13] = target: T2, tetanus neurotoxin (TeNT), authentic …; test: as above; remark: listed apart in the source
Swine albumin = target: T5, Swine albumin (swine, UniProt P08835 25-607); test: BLI (Octet Red96), SDA on Ni-NTA sensor, albumin as analyte
T5 construct: also called Porcine Alb

Horse albumin = target: T6, Horse albumin (horse, UniProt P35747 25-607); test: as above
T6 construct: also called Equine albumin; Equine Alb

Dog albumin = target: T7, Dog albumin (dog, UniProt P49822 25-608); test: as above
T7 construct: also called Canine albumin; Canine Alb

Cat albumin = target: T8, Cat albumin (cat, UniProt P49064 25-608); test: as above
T8 construct: also called Feline albumin; Feline Alb

Binder | binding result (horse serum albumin) | minimal absorbance value (GT1b-TeNT inhibition) [1] | Effective SDA Concentration at A450 0.56 [2] | maximal absorbance value (dog albumin (dog Alb) [3]) | Effective SDA Concentration at A450 0.2 (dog albumin (dog Alb) [4]) | maximal absorbance value [5] | Effective SDA Concentration at A450 0.15 [6] | maximal absorbance value [7] | Effective SDA Concentration at A450 0.15 [8] | maximal absorbance value [10] | Effective SDA Concentration at A450 0.7 [11] | maximal absorbance value [12] | Effective SDA Concentration at A450 0.3 [13] | other results
SVG13L (VHH, yeast-produced) VHH: QVQLQESGGGLVQPGGSLRLSCEASGFTFDDYGMSWVRQAPGKGLEWVSSLTPNGGSTYYADSVKGRFTISRDNAKNTLYLQMNSLKPEDTALYYCAKNSYYGAMDYWGKGTLVTVSS | no binding (tested: 100 nM) | – | – | – | – | – | – | – | – | – | – | – | – | –
SVT06-GS2-SVA12M2-H6 (bispecific antibody) QVQLQESGGGSVQAGGSLRLSCTASELSYDDYTIAWFRRAAGEGRVEDGEGVASITKSYDRAYDNKINYGHSVKGRFTISRDNAKNTVYLQMTDLLPSDTAVYYCALDITPPGGVGASLTEGFLFDYWGQGTQVTVSSGGGGSGGGSEVQLVESGGGLVQAGGSLRLSCAASGRTFSYYPMAWFRQAPGQEREFVAAIIGADTTYYADSLKGRFTISRDNAKNMVYLQMNSLKPEDTAVYYCAARNTYWSDVYYREGQYTNWGQGTQVTVSSHHHHHH | – | 0.18 A450 | 55 ng/mL | 1.67 A450 | 39 ng/mL | 1.59 A450 | 3.5 ng/mL | 1.21 A450 | 1.1 ng/mL | 1.47 A450 | 1.5 ng/mL | 0.66 A450 | 19 ng/mL | Kd [9]: 0.151 nM; koff [9]: 8.9e-05 s⁻¹; kon [9]: 591000 M⁻¹ s⁻¹
SVT16-L123Q-GS2-SVG13M4-H6 (bispecific antibody) QVQLQESGGGSVQAGDSLRLSCAASGRTISNYAMGWFRQAPGKQREFVAAISRSDNTYYTDSVKGRFTISRDNAKNTLYLQMNSLKPEETAVYYCAADPNLMYESKWKYRALEAWGQGTQVTVSSGGGGSGGGSEVQLVESGGGLVQPGGSLRLSCEASGFTFDDYGMSWVRQAPGKGLEWVSSLTPNGGSTYYADSVKGRFTISRDNAKNTLYLQMNSLKPEDTALYYCAKNSYYGAMDYWGQGTQVTVSSHHHHHH | no binding (tested: 100 nM) | – | – | – | – | – | – | – | – | – | – | – | – | –
SVA12L (VHH) VHH: QVQLQESGGGLVQAGGSLRLSCAASGRTFSYYPMAWFRQAPGQEREFVAAIIGADTTYYADSLKGRFTISRDNAKNMVYLQMNSLKPEDTAVYYCAARNTYWSDVYYREGQYTNWGQGTQVTVSS | – | – | – | – | – | – | – | – | – | – | – | – | – | Kd (Swine albumin): 159 nM; koff (Swine albumin): 0.0238 s⁻¹; kon (Swine albumin): 150000 M⁻¹ s⁻¹; Kd (Horse albumin): 10.7 nM; koff (Horse albumin): 0.00109 s⁻¹; kon (Horse albumin): 101000 M⁻¹ s⁻¹; Kd (Dog albumin): 271 nM; koff (Dog albumin): 0.0125 s⁻¹; kon (Dog albumin): 45900 M⁻¹ s⁻¹; Kd (Cat albumin): 19 nM; koff (Cat albumin): 0.000737 s⁻¹; kon (Cat albumin): 38800 M⁻¹ s⁻¹
SVT15-3FW4M-GS2-SVA12M2-H6 (bispecific antibody) QVQLQESGGGLVQTGGSLRLSCRASGRAFANYHFGWFRQAPGKDREFVASISWKGGSTYYANFALGRFTSSVDRAESSVYLQMSGLTPEDTATYYCAAHDGGDWNYHTGMDYWGQGTQVTVSSGGGGSGGGSEVQLVESGGGLVQAGGSLRLSCAASGRTFSYYPMAWFRQAPGQEREFVAAIIGADTTYYADSLKGRFTISRDNAKNMVYLQMNSLKPEDTAVYYCAARNTYWSDVYYREGQYTNWGQGTQVTVSSHHHHHH | – | 0.15 A450 | 78 ng/mL | 1.55 A450 | 76 ng/mL | 1.35 A450 | 8 ng/mL | 1.36 A450 | 2 ng/mL | 1.34 A450 | 3.9 ng/mL | 0.64 A450 | 33 ng/mL | –
